# Like-named read-outs stand apart in the source and are kept apart here.
# T1: rGyr_hel (reverse gyrase helicase-like domain) (Thermotoga maritima, UniProt O51934 59-541)
# T1 sequence: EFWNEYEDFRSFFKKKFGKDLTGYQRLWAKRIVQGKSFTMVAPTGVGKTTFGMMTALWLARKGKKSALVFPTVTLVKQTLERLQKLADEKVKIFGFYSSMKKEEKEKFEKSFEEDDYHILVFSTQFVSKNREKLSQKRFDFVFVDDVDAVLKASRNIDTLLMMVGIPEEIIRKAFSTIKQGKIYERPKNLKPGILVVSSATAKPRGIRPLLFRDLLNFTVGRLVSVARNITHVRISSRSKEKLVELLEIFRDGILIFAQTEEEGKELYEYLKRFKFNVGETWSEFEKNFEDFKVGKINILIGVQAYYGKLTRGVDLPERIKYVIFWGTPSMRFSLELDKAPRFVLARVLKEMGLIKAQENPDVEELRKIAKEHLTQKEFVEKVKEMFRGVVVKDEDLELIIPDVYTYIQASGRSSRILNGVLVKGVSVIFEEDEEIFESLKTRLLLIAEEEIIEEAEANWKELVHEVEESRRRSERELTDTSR
# T2: rGyr_fl Y851F (full-length reverse gyrase) (Thermotoga maritima, UniProt O51934 1-1104, Y851F)
# T2 sequence: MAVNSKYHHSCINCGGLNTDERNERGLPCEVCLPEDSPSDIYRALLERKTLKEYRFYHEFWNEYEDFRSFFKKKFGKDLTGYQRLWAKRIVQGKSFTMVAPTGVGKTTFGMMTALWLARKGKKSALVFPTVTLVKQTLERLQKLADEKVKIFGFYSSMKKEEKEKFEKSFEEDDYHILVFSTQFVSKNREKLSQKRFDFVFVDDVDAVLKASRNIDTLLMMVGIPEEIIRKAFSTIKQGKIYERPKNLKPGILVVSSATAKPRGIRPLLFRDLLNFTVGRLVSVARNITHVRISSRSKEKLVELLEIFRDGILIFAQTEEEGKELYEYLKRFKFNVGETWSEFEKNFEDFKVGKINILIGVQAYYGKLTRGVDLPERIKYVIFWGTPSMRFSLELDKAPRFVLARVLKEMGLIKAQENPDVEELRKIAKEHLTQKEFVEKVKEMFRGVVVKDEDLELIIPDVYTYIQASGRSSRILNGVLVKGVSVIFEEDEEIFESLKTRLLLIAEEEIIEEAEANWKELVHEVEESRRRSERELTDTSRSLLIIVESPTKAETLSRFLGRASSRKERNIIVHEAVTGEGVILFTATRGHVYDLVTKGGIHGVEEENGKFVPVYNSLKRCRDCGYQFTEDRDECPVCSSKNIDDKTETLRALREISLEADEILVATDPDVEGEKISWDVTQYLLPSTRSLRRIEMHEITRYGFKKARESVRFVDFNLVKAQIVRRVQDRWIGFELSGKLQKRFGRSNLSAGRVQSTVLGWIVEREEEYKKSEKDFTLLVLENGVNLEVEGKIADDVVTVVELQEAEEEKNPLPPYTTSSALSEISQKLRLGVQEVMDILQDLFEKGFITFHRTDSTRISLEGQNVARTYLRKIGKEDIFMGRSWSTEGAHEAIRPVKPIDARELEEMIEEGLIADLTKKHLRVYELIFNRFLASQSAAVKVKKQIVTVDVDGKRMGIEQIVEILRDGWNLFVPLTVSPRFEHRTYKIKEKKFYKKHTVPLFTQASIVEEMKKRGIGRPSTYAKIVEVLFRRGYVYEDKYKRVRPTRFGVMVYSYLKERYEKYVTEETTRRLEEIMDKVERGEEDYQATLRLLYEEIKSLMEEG
# What was measured:
# Assay in all cases: fluorescence anisotropy
# [1] = target: T1, rGyr_hel (reverse gyrase helicase-like …)
# [2] = target: T1, rGyr_hel (reverse gyrase helicase-like …); remark: listed apart in the source
# [3] = target: T1, rGyr_hel (reverse gyrase helicase-like …); remark: listed apart in the source
# [4] = target: T1, rGyr_hel (reverse gyrase helicase-like …); remark: listed apart in the source
# [5] = target: T2, rGyr_fl Y851F (full-length reverse …)
binder,measurement,setting,value
60-base ssDNA (ssDNA) DNA: AAGCCAAGCTTCTAGAGTCAGCCCGTGATATTCATTACTTCTTATCCTAGGATCCCCGTT,Kd,[1],280 ± 10 nM
same,Kd,[2],380 ± 50 nM
same,Kd,[3],600 ± 70 nM
same,Kd,[4],2900 ± 100 nM
same,Kd,[5],330 ± 20 nM
